The values below come from patent publication US20160195533.

Data set [1] has as its target Flag-tagged Snail1 (pCMV-Tag2B N-terminal Flag-tagged Snail1 expression vector, Addgene).
In data set [2] the target is Strep-tagged Snail1 (pEXPR-IBA105-Snail1).
Data set [3] deals with Snail1, endogenous protein of A549, HCC44, HEK293T or H1299 cells.
Sequence of Snail1, endogenous protein of A549, HCC44, HEK293T or H1299 cells (chain, as listed by the source): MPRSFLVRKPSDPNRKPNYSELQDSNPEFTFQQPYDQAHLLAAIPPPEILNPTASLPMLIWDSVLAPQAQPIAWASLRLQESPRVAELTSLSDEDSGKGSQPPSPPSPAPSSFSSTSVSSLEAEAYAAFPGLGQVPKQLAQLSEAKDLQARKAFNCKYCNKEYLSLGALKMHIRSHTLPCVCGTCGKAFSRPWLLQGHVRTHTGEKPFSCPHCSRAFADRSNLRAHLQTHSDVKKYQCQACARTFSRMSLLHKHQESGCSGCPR

Sequence of Flag-tagged Snail1 (pCMV-Tag2B N-terminal Flag-tagged Snail1 expression vector, Addgene) (chain, as listed by the source): as above
Sequence of Strep-tagged Snail1 (pEXPR-IBA105-Snail1) (chain, as listed by the source): as above

B1: Strep-tagged ERS-WHEP domain of EPRS (pEXPR-IBA105-ERS) (protein)
chain: MATLSLTVNSGDPPLGALLAVEHVKDDVSISVEEGKENILHVSENVIFTDVNSILRYLARVATTAGLYGSNLMEHTEIDHWLEFSATKLSSCDSFTSTINELNHCLSLRTYLVGNSLSLADLCVWATLKGNAAWQEQLKQKKAPVHVKRWFGFLEAQQAFQSVGTKWDVSTTKARVAPEKKQDVGKFVELPGAEMGKVTVRFPPEASGYLHIGHAKAALLNQHYQVNFKGKLIMRFDDTNPEKEKEDFEKVILEDVAMLHIKPDQFTYTSDHFETIMKYAEKLIQEGKAYVDDTPAEQMKAEREQRIDSKHRKNPIEKNLQMWEEMKKGSQFGQSCCLRAKIDMSSNNGCMRDPTLYRCKIQPHPRTGNKYNVYPTYDFACPIVDSIEGVTHALRTTEYHDRDEQFYWIIEALGIRKPYIWEYSRLNLNNTVLSKRKLTWFVNEGLVDGWDDPRFPTVRGVLRRGMTVEGLKQFIAAQGSSRSVVNMEWDKIWAFNKKVIDPVAPRYVALLKKEVIPVNVPEAQEEMKEVAKHPKNPEVGLKPVWYSPKVFIEGADAETFSEGEMVTFINWGNLNITKIHKNADGKIISLDAKLNLENKDYKKTTKVTWLAETTHALPIPVICVTYEHLITKPVLGKDEDFKQYVNKNSKHEELMLGDPCLKDLKKGDIIQLQRRGFFICDQPYEPVSPYSCKEAPCVLIYIPDGHTKEMPTSGSKEKTKVEATKNETSAPFKERPTPSLNNNCTTSEDSLVLYNRVAVQGDVVRELKAKKAPKEDVDAAVKQLLSLKAEYKEKTGQEYKPGNPPAEIGQNISSNSSASILESKSLYDEVAAQGEVVRKLKAEKSPKAKINEAVECLLSLKAQYKEKTGKEYIPGQPPLSQSSDSSPTRNSEPAGLETPEAKVLFDKVASQGEVVRKLKTEKAPKDQVDIAVQELLQLKAQYKSLIGVEYKPVSATGAEDKDKKKKEKENKSEKQNKPQKQNDGQRKDPSKNQGGGLSSS
Regarding B1, the “Snail1 stability, anti-Flag immunoblot (HEK293T)” value in data set [1] was “the WHEP-PRS fragment rather than ERS-WHEP fragment in the EPRS more contributed to the Snail1 stability”.

B2: Strep-tagged WHEP-PRS domain of EPRS (pEXPR-IBA105-PRS) (protein)
chain: VEATKNETSAPFKERPTPSLNNNCTTSEDSLVLYNRVAVQGDVVRELKAKKAPKEDVDAAVKQLLSLKAEYKEKTGQEYKPGNPPAEIGQNISSNSSASILESKSLYDEVAAQGEVVRKLKAEKSPKAKINEAVECLLSLKAQYKEKTGKEYIPGQPPLSQSSDSSPTRNSEPAGLETPEAKVLFDKVASQGEVVRKLKTEKAPKDQVDIAVQELLQLKAQYKSLIGVEYKPVSATGAEDKDKKKKEKENKSEKQNKPQKQNDGQRKDPSKNQGGGLSSSGAGEGQGPKKQTRLGLEAKKEENLADWYSQVITKSEMIEYHDISGCYILRPWAYAIWEAIKDFFDAEIKKLGVENCYFPMFVSQSALEKEKTHVADFAPEVAWVTRSGKTELAEPIAIRPTSETVMYPAYAKWVQSHRDLPIKLNQWCNVVRWEFKHPQPFLRTREFLWQEGHSAFATMEEAAEEVLQILDLYAQVYEELLAIPVVKGRKTEKEKFAGGDYTTTIEAFISASGRAIQGGTSHHLGQNFSKMFEIVFEDPKIPGEKQFAYQNSWGLTTRTIGVMTMVHGDNMGLVLPPRVACVQVVIIPCGITNALSEEDKEALIAKCNDYRRRLLSVNIRVRADLRDNYSPGWKFNHWELKGVPIRLEVGPRDMKSCQFVAVRRDTGEKLTVAENEAETKLQAILEDIQVTLFTRASEDLKTHMVVANTMEDFQKILDSGKIVQIPFCGEIDCEDWIKKTTARDQDLEPGAPSMGAKSLCIPFKPLCELQPGAKCVCGKNPAKYYTLFGRSY
B2: the “Snail1 stability, anti-Flag immunoblot (HEK293T)” value in data set [1] was “the WHEP-PRS fragment rather than ERS-WHEP fragment in the EPRS more contributed to the Snail1 stability”.

B3: 2× Strep-tagged EPRS (pEXPR-2×IBA105-EPRS) (protein)
chain: MATLSLTVNSGDPPLGALLAVEHVKDDVSISVEEGKENILHVSENVIFTDVNSILRYLARVATTAGLYGSNLMEHTEIDHWLEFSATKLSSCDSFTSTINELNHCLSLRTYLVGNSLSLADLCVWATLKGNAAWQEQLKQKKAPVHVKRWFGFLEAQQAFQSVGTKWDVSTTKARVAPEKKQDVGKFVELPGAEMGKVTVRFPPEASGYLHIGHAKAALLNQHYQVNFKGKLIMRFDDTNPEKEKEDFEKVILEDVAMLHIKPDQFTYTSDHFETIMKYAEKLIQEGKAYVDDTPAEQMKAEREQRIDSKHRKNPIEKNLQMWEEMKKGSQFGQSCCLRAKIDMSSNNGCMRDPTLYRCKIQPHPRTGNKYNVYPTYDFACPIVDSIEGVTHALRTTEYHDRDEQFYWIIEALGIRKPYIWEYSRLNLNNTVLSKRKLTWFVNEGLVDGWDDPRFPTVRGVLRRGMTVEGLKQFIAAQGSSRSVVNMEWDKIWAFNKKVIDPVAPRYVALLKKEVIPVNVPEAQEEMKEVAKHPKNPEVGLKPVWYSPKVFIEGADAETFSEGEMVTFINWGNLNITKIHKNADGKIISLDAKLNLENKDYKKTTKVTWLAETTHALPIPVICVTYEHLITKPVLGKDEDFKQYVNKNSKHEELMLGDPCLKDLKKGDIIQLQRRGFFICDQPYEPVSPYSCKEAPCVLIYIPDGHTKEMPTSGSKEKTKVEATKNETSAPFKERPTPSLNNNCTTSEDSLVLYNRVAVQGDVVRELKAKKAPKEDVDAAVKQLLSLKAEYKEKTGQEYKPGNPPAEIGQNISSNSSASILESKSLYDEVAAQGEVVRKLKAEKSPKAKINEAVECLLSLKAQYKEKTGKEYIPGQPPLSQSSDSSPTRNSEPAGLETPEAKVLFDKVASQGEVVRKLKTEKAPKDQVDIAVQELLQLKAQYKSLIGVEYKPVSATGAEDKDKKKKEKENKSEKQNKPQKQNDGQRKDPSKNQGGGLSSSGAGEGQGPKKQTRLGLEAKKEENLADWYSQVITKSEMIEYHDISGCYILRPWAYAIWEAIKDFFDAEIKKLGVENCYFPMFVSQSALEKEKTHVADFAPEVAWVTRSGKTELAEPIAIRPTSETVMYPAYAKWVQSHRDLPIKLNQWCNVVRWEFKHPQPFLRTREFLWQEGHSAFATMEEAAEEVLQILDLYAQVYEELLAIPVVKGRKTEKEKFAGGDYTTTIEAFISASGRAIQGGTSHHLGQNFSKMFEIVFEDPKIPGEKQFAYQNSWGLTTRTIGVMTMVHGDNMGLVLPPRVACVQVVIIPCGITNALSEEDKEALIAKCNDYRRRLLSVNIRVRADLRDNYSPGWKFNHWELKGVPIRLEVGPRDMKSCQFVAVRRDTGEKLTVAENEAETKLQAILEDIQVTLFTRASEDLKTHMVVANTMEDFQKILDSGKIVQIPFCGEIDCEDWIKKTTARDQDLEPGAPSMGAKSLCIPFKPLCELQPGAKCVCGKNPAKYYTLFGRSY
For B3, the “protein expression level of Snail1, anti-Flag immunoblot (HEK293T)” value in data set [1] is reported as “the protein expression level of Snail1 increased more when overexpressed together with EPRS through co-transfection than when overexpressed alone”.

B4: Flag-tagged EPRS (human Flag-tagged EPRS expression vector, Origene) (protein)
chain: B3 chain
As to B4, the “ubiquitination of Snail1 (streptavidin pull-down, anti-HA immunoblot)” value in data set [2] was “the ubiquitination was reduced in the EPRS overexpressed experimental group”.

B5: glutamyl-prolyl-tRNA synthetase (EPRS), endogenous protein of A549 or HEK293T cells (protein)
chain: B3 chain
Regarding B5, in data set [3], the “EMT markers after EPRS knock-down (immunoblot, A549)” value is “at the time of EPRS knock-down, the Snail1 and p-SMAD3 was reduced and the E-cadherin was increased. This indicates that the EMT progress was suppressed”.
